{"source": "the DeepSol protein solubility set"}
{"assay": "soluble on expression in E. coli; label from the status in PepcDB or PDB records"}
{"sequence": "MRNNGALGLTSKSLKNDKIMNVRTKDRGEPSTVKFSPDGRLCAMQRTPTTADVVFLEKTETSLCLELTVNTKSKEPLLAVEWVTNNQLLLVNNHSAELLYINEDKKSSKLLKATNVNAAWAIYYAPSQLLLIANGQSCSYLQPFVVTHSQFTRMKGFEVDFGGSISKENFLEKDAAIATIYGRVYVLVFKYSNRNATVLDLYELPFDAATGPSFKHSLILGFNGGCGIHVIDNLVVVHHQASQKSLIFDIRVSSPSKSHSPLVVTTIESHPQHQPPPALYTNFWFTFLPDIVIDSSGGVMYSIRLKNEHAQLEIADKQTMLEYLARRSNEKKLFVTTLLACLKARALSLRQIRKVFAMLTGVTGKSKSSFFCNGNFKLRQMANLPICRRCSISANCRFAGNFQIRQISDLAEIFIFSKFSVLPETCNSGKLIICRFAGDEEVSLPESYVANIMLQYLRSLFDAEITPEAYLIEMVVETLAEAGEMSKLQQIVTYRVINDSKPLAFLLLSYEARCSTLFQSGVDILARNKASDEIVEVMLEKKQIVDAFRFIDVRNLNDALIPKVVEAANQHCVRQTRYAIKEHLTEKKAKASLYKSIGDELYTAEEVKGASEEQATCALFEI", "soluble on expression in E. coli": "not soluble"}
{"sequence": "MSLLLEPSAAMIKEQKLYREMGLTDEEFARIEAILGRLPNYTETGIFAVMWSEHCSYKNSKPVLKKFPTDGPHVLQGPGEGAGIVDIGDGLAVAFKIESHNHPSAIEPYQGAATGVGGIIRDVFSMGARPIALLNSLRFGELTSPRVKYLFEQVVAGIAGYGNCVGIPTVGGEVQFDPAYEGNPLVNAMCVGIIRHEDIQRGVATGVGNTVMYVGAKTGRDGIHGATFASEELSEQSEAKRPAVQVGDPFMEKLLLEACLEAVKSDALVGIQDMGAAGLTSSSAEMASKGGFGIEMNLDLVPQREAGMTPYEMMLSESQERMLLVVKQGCEDEIAAIFAKYGLEAKAIGKVTDDKMLRLFFRGEVAAEIPVDALAKDAPVYHKPSAEPAYYREFQAMPPYIPHIEDYNQTLLGLLAQPTIASKEWVYDQYDYMVRTNTVVAPGSDAAVVRIRGTNKALALTTDCNSRYLYLDPETGGKIAVAEAARNVVCSGAKPLAITDCLNFGSPEKPEIFWQLEKAVDGMSEACRALGTPVVSGNVSLYNETNGEAVYPTPVVGMVGLIDDLSHITTQSFKQAGDLIYVIGEAKPEFGGSELQKWLEGRIFGKAPEIDLEVEASRQRQLLAAIRAGVVASAHDIAEGGLAVALAECVMGASGLGAKVTIGGDLVSELFSETQSRFVVSVKKEQKEAFEQLVEAKQIGEVTDDGAFVVNGEHGETLIHLSVAKMRNVWKGAIPCLLKSKD", "soluble on expression in E. coli": "not soluble"}
{"sequence": "MGSDKIHHHHHHMLRLFQRKSAVLPPVAAVTETALSKGLLQPKPAAELLATPRRQKLLEHIWQRTSLSRKQFHTLYRVPLERYADLVQQFPASESHHHAYLGGMLDHGLEIVAFALKLRQSHLLPAGASPEDQAAQAEAWTAAVAYAALLHDIGKIAVDLHVELQGGRIWHPWHGPLSQPYRFRHREGREYRLHGAATGLLYSRILDSAALDWLSGYPALWSQLLYVLSGQYEHADMLGELVVQADRASVAQELGGDPAKVMAAPKHALQRKLLEGLRYLLKEQLKLNQPEASDGWLTEDALWLVSKTVSDKLRAHLLSQGIDGIPASNSAVFNVLQEHSMLQLTCPHRPYQ", "soluble on expression in E. coli": "not soluble"}
{"sequence": "SRRSLRAGKRRQTAGRKSKSPPKVPIVIQDDSLPAGPPPQIRILKRPTSNGVVSSPNSTSRPTLPVKSLAQREAEYAEARKRILGSASPEEEQEKPILDRPTRISQPEDSRQPNNVIRQPLGPDGSQGFKQRR", "soluble on expression in E. coli": "soluble"}
{"sequence": "MTIIAGLPVEYNDRFIRGIAVFAPWRKTPGNYHQSHGACLGRRSRTITVVDEQPQGMDMDPTCSLFTTGQCLGEPDLLASARRLQFFSHQYSIAVLMANARGNSALWDEYGRLIVRADRGSLLLVGQRSSQGWQGDIIPLR", "soluble on expression in E. coli": "not soluble"}
{"sequence": "MSLDDLWQTLPDPAELVTVGDLRGMIHTHSTWSDGGASIREMAEATLTLGHEFLGTADHSRAAYYANGLTIERLREQLKEIRELQRAGLPIVAGSEVDILDDGSLDFPDDVLGELDYVVVSVHSNFTLDAARQTERLIRAVSHPLVTVLGHATGRLLLRRPGYALDLDAVLGACEANGTVVEINANAARLDLDWREALRWRERLKFAINTDAHVPGGLRDARYGVMQARKAGLTPAHVVNSLGRAEFLDFVARQRAARGAPGPADREGHHHHHH", "soluble on expression in E. coli": "not soluble"}
{"sequence": "MGSDKIHHHHHHMRRADRLFQIVQILRHRRLTTAKQLAERLEVSSRTIYRDIQDLCLSGIPIEGEAGVGYLLRQEVNVPPLMFNEQELEAIQVGMRMVQAQGGHELASAAKQAMIKVEAVLPERLKAYQSLMFAPDFYSEGQLFSFLDLLRRTSREREYILLSYQDGKQSSSERQVRPLALYYWQGVWTLLAWCELRGDFRNFRVDRIVGVLPLGSHFQHTPGQEMPDYIAMMQAQYGEC", "soluble on expression in E. coli": "not soluble"}
{"sequence": "MIGKCTHVVDCRETMGMGEGGGIAQRGTFAQCGSEVLAVAMSPGRRHITKPVCEITFALREANIMTSTIVLNAGAGVPQDAPSAGAGSLFGLTPAEVEQMKRHKLLVVHLGGVKNHITYKARLILRNVDRPCIIICEYPVDFEDFAKIGVRTRAVMPDEPKTKGTIVDIVSGVIRGETCPQEKLDEIIRKVKLALGGALEHHHHHH", "soluble on expression in E. coli": "not soluble"}
{"sequence": "MKELMRNVYLLDDTLVTKSKYGSHYGEKVFDGYREWVPWRSKLAAMILKGHRLKLRGDERVLYLGAASGTTVSHLADIVDEGIIYAVEYSAKPFEKLLELVRERNNIIPLLFDASKPWKYSGIVEKVDLIYQDIAQKNQIEILKANAEFFLKEKGEVVIMVKARSIDSTAEPEEVFKSVLKEMEGDFKIVKHGSLMPYHRDHIFIHAYRF", "soluble on expression in E. coli": "soluble"}
{"sequence": "MAYVGDDLIDWPVMEKVGLSVAVADAHPLLIPRADYVTRIAGGRGAVREVCDLLLLAQGKLDEAKGQSI", "soluble on expression in E. coli": "not soluble"}
{"sequence": "MNTTQRADQQTSADRRRRELLEAADRVVLRDGPHASMNAIAAEAGITKPILYRHFGDKGGLYAALAVRHTDALLASLRAALDAPAQRRQRVEATLDTYLAAIEARPQVYRFLMHPAESAGTPGDQSEQGFDVGKHSAPLLRRMGEELAQVIEERLDVGPGTQQLARVWGHGIVGMMHAAGDWWLGERPCPREELVRTLADLLWGRLAEAGDKEGGPGF", "soluble on expression in E. coli": "not soluble"}
{"sequence": "MGSDKIHHHHHHMGTRKGDAMEKFDTVVIGAGQAGIATSEHLRALGIDHVVLERGRIAERWRSERWDSLVANGPAWHDRFPGMAFSCDGDVFADKECVARYFEDYAKMIDAPVRTGVTVERARPHADRAGFLVETSQGTFDARNLICATGPFQKPAIPPIIPETSDLTQMHSTAYRNPDALPDGAVLVIGGGSSGSQIAAELHDAGRKVFFSIGPHDRPPRRYRGRDNVWWLGVLGIWNMDTPAPGTEHVTIAVSGAHGGKTVDFRLLAERGITLLGMSSGYEDGVLHIANDLKTNLDAGDANMLSLLEAADAYIKRTGIDLPPEPEAWVIPDDPDCVSNPVRALDLSENNIGTVIWATGFQFDYDWLEADTLDDRGSPIHQRGISAVPGLYFVGLPWQSRRGSSFIWGVWHDAKFIADQIAIQENYLAYRPTASS", "soluble on expression in E. coli": "not soluble"}
{"sequence": "MDDLIELEISKTQCIRIYLPCKKEDLDFFDCVTIEYLKEQTEYILYYKDLSGAAIISLKELLEKALNFKLQIENEYKDKGIGYYHSIYTNNIYANKLQTAGSQDLIDPTKDFLVWSTLGPTSIGTFIYNDQDKIYIEISPLYEWFNHIFDDILEEYNEVKDEDASFDDFLNNYKPIDIVAIDRKVAEKWLEFCCEMIEILKANDKKQLK", "soluble on expression in E. coli": "not soluble"}
{"sequence": "MGSDKIHHHHHHMDYRKYFEKLKSDYVYLDNAATTPPLKSVMKKALEFLENYSSIHRGTGYLAKMSTDSYENSRRVIGEYLHATKDDVVVFTANTTDSINKFALLYPFMGNEGVLISDIEHSSNMLPWFKNSGRVKMFNTGKSNKINPYSIEEELYRNPQIKIVSICGASNLTGYLTPLRDIYKICKKYGVYLLVDASQIAPHFKITLDDCDFIAFSGHKMYAPFGAGVLAGRKDVLSHIGLAPTGGGNIVYIGKRGEVIYKEPPLSLEAGTPNGLGAVTVAEAMRVLNEDIGWENMNQHNKRINEIGYKYLSDLSNIKLYYPKDQDIRINRTPTFVFDFKNVGTKVGCDILKENKIGVRCGTFCLYRLIEKVKNIDEYERKRLYRNYIVPNRELPERYSLVRASAGLMTTEEDFLRLRAAIKKVE", "soluble on expression in E. coli": "not soluble"}
